Reference: doi:10.1101/2021.04.07.438776

Biological target: N-terminal 6X-His-Tagged Caspar (Drosophila)
Assay: SEC

## N-terminal 6X-His-Tagged Caspar (natural protein)
  stoichiometry N: 2
